Patent US10653749B2, “Targeting GIV-GEF-GI signaling for treating diverse diseases” (The Regents of the University of California, priority 2015, dated 2020)
Residue numbers refer to the chain shown, from its start. Numbers in names are those of the source.

B1: TAT-GIV-CT-WT: Recombinant cell-permeable fusion of TAT-PTD, His and HA tags, linker and human GIV C-terminus (aa 1660-1870), wild type; SEQ ID NO: 2 (protein)
chain: MRGSHHHHHHGMASMTGGQQMGRDLYDDDDKDRWGSKLGYGRKKRRQRRRGGSTMSGYPYDVPDYAGSMGGSGHSGETLESRHHKIKTGSPGSEVVTLQQFLEESNKLTSVQIKSSSQENLLDEVMKSLSVSSDFLGKDKPVSCGLARSVSGKTPGDFYDRRTTKPEFLRPGPRKTEDTYFISSAGKPTPGTQGKIKLVKESSLSRQSKDSNPYATLPRASSVISTAEGTTRRTSIHDFLTKDSRLPISVDSPPAAADSNTTAASNVDKVQESRNSKSRSREQQSS
B2: TAT-GIV-CT-FA: GEF-deficient F1685A mutant of the TAT-GIV-CT peptide, dominant-negative; SEQ ID NO: 3 (protein)
chain: B1 chain with F101A

Experiments:
Type in all cases: cell-based
[1] = system: HeLa cells; test: Actin cytoskeleton remodeling in HeLa cells (phalloidin staining, confocal); conditions: ~400 nM TAT peptide
Protocol: HeLa cell lines were fixed at room temperature with 3% paraformaldehyde for 20-25 min, permeabilized (0.2% Triton X-100) for 45 min and incubated for 1 h each with primary and then secondary antibodies as described (7). Dilutions of antibodies and reagents were as follows: His (1:500); Phalloidin (1:1,000); DAPI (1: 2,000); secondary goat anti-rabbit (594) and goat anti-mouse (488) Alexa-conjugated antibodies (1:500). Coverslips were mounted with ProLong Gold (Life Technologies). Cells were imaged on a Leica SPE confocal microscope using a 63× oil objective using 488, 561, and 405 laser lines for excitation. Images were scanned using a line-average of 3. All images were processed using ImageJ software and assembled into figure panels using Photoshop and Illustrator (Adobe).
(§1) For TAT-protein transduction, cells were incubated with 400-800 nM of the TAT-proteins for 30 min at 37° C. prior to three washes with PBS and addition of fresh growth media. For analysis of EGF signaling, subconfluent monolayers of HeLa cells were treated with TAT proteins for 30 min, washed with PBS, and subsequently stimulated with EGF (50 nM) at 4 h after TAT transduction. For scratch-wound assays, HeLa monolayers were treated with TAT proteins before and at 12 h after wounding. For cancer cell invasion assays, highly invasive MDA MB 231 breast cancer cells were plated in 6-well dishes, treated with TAT-peptides for 30 min and subsequently lifted and placed in transwell chamber in the presence of serum-free media. For L×2 myofibroblast activation assays, cells were first treated with TAT-proteins for 30 min, starved in serum-free media, and subsequently treated with 1.5 ng/ml TGF-β for 24 h. TAT-protein transduction was repeated every 8 h during the course of TGFβ stimulation (total 3 treatments). For assays involving insulin stimulation of TAT-treated L6 myotubes, such stimulation was carried out 90 min after transduction. In each case, whole cell lysates prepared from cells in duplicate wells were analyzed for signaling pathways and TAT-protein uptake by immunoblotting.

[2] = system: HeLa cells; test: Scratch-wound 2D cell migration assay; conditions: lysates 6 h post-wounding
[3] = system: L×2 human hepatic stellate cells; test: L×2 myofibroblast (hepatic stellate cell) activation by TGFβ, qPCR and immunoblot
Protocol: For measurement of collagen and αSMA mRNA levels in L×2 HSCs we followed the protocols exactly as before (59). Briefly, total RNA was isolated using an RNeasy kit (QIAGEN) as per the manufacturer's protocol. First-strand cDNA was synthesized using SuperScript II reverse transcriptase (Invitrogen), followed by ribonuclease H treatment (Invitrogen) before performing quantitative realtime PCR. Reactions omitting reverse transcriptase were performed in each experiment as negative controls. Reactions were then run on a real-time PCR system (ABI StepOnePlus; Applied Biosystems). Gene expression was detected with SYBR green (Invitrogen), and relative gene expression was determined by normalizing to GAPDH using the ΔΔT method. The sequences of primers used in this work are identical to what were used previously (59).
as §1, with “For assays involving insulin stimulation of TAT-treated L6 myotubes, such stimulation was carried out 90 min after transduction.” left out

Molecule	actin remodeling / actin stress fibers [1]	actin remodeling / actin stress fibers ([1]; listed as WT)	Akt activation during 2D cell migration [2]	EGFR autophosphorylation during 2D cell migration [2]	Akt activation during 2D cell migration ([2]; listed as WT)	EGFR autophosphorylation during 2D cell migration ([2]; listed as WT)	reduction of HSC activation (expression of α-SMA) ([3]; TGFβ 24 h, TAT every 8 h, qPCR)	suppression of collagen production ([3]; TGFβ 24 h, TAT every 8 h, vs control and TAT-GIV-CT-WT, qPCR)	TGFβ-SMAD cascade (phosphorylation of SMAD2/3) ([3]; immunoblot)
B1	triggered actin remodeling	not	enhances	enhances	enhanced	enhanced			
B2	suppressed the formation of actin stress fibers		not	not			~30%	~70%	suppression
